PMC9250508 (2022)

B1: AZD1061 Fab (Fab, V domains shown)
VH: EVQLVESGGGLVKPGGSLRLSCAASGFTFRDVWMSWVRQAPGKGLEWVGRIKSKIDGGTTDYAAPVKGRFTISRDDSKNTLYLQMNSLKTEDTAVYYCTTAGSYYYDTVGPGLPEGKFDYWGQGTLVTVSS
VL: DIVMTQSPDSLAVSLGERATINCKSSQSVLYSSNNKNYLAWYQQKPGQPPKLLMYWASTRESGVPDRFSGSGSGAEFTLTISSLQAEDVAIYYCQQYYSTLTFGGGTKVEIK
B2: AZD8895 Fab (Fab, V domains shown)
VH: QMQLVQSGPEVKKPGTSVKVSCKASGFTFMSSAVQWVRQARGQRLEWIGWIVIGSGNTNYAQKFQERVTITRDMSTSTAYMELSSLRSEDTAVYYCAAPYCSSISCNDGFDIWGQGTMVTVSS
VL: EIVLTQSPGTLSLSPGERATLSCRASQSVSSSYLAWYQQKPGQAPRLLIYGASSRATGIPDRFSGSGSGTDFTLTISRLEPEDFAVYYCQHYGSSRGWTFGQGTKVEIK

Molecular target: D614G RBD
Test: BLI

Binder	Kd [nM]	koff [s⁻¹]
B1	14.5	0.00217
B2	9.79	0.00603
